Measured values reported in US20150246959A1 (US Dept. of Health and Human Services, published 2015).

Biological target: MAGE-A3 full-length protein processed and presented by HLA-DP4 on cells (human)
Test: cell-based or functional assay

Chain of MAGE-A3 full-length protein processed and presented by HLA-DP4 on cells (human) (P20036 29-260, chain 1 of 2): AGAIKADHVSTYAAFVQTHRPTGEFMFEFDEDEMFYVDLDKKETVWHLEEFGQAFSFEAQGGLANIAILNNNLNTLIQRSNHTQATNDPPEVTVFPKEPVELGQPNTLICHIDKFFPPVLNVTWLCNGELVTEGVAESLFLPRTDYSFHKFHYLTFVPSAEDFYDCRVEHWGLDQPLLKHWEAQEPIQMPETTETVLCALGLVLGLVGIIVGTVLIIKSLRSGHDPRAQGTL
Chain of MAGE-A3 full-length protein processed and presented by HLA-DP4 on cells (human) (P43357 whole entry, chain 2 of 2, further chain): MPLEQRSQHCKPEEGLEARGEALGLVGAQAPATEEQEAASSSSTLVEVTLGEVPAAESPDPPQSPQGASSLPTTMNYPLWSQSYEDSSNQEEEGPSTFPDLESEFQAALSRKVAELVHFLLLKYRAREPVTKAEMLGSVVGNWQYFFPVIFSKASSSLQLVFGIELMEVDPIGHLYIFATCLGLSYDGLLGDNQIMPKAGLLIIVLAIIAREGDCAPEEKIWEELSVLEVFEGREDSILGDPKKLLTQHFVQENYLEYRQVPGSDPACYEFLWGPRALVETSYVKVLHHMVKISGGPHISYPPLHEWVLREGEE

| Binder | fold increase in anti-tumor activity (IFN-gamma) against wt 6F9 TCR, CD4+ enriched PBL |
| --- | --- |
| a1 substituted 6F9 TCR (alpha chain S116A) (TCR, V domains shown) V domain 1: QTVTQSQPEMSVQEAETVTLSCTYDTSESDYYLFWYKQPPSRQMILVIRQEAYKQQNATENRFSVNFQKAAKSFSLKISDSQLGDAAMYFCALRASGTYKYIFGTGTRLKVLA V domain 2: GAGVSQSPSNKVTEKGKDVELRCDPISGHTALYWYRQSLGQGLEFLIYFQGNSAPDKSGLPSDRFSAERTGGSVSTLTIQRTQQEDSAVYLCASIRTGPFFSGNTIYFGEGSWLTVVE | ~2 fold |
| a2 substituted 6F9 TCR (alpha chain S117A) (TCR, V domains shown) V domain 1: QTVTQSQPEMSVQEAETVTLSCTYDTSESDYYLFWYKQPPSRQMILVIRQEAYKQQNATENRFSVNFQKAAKSFSLKISDSQLGDAAMYFCALRSAGTYKYIFGTGTRLKVLA V domain 2: GAGVSQSPSNKVTEKGKDVELRCDPISGHTALYWYRQSLGQGLEFLIYFQGNSAPDKSGLPSDRFSAERTGGSVSTLTIQRTQQEDSAVYLCASIRTGPFFSGNTIYFGEGSWLTVVE | ~2 fold |
